The values below come from publication PMC8826748 (Nature, 2021).

This series deals with the molecule itself. Put plainly: cryo-EM structure.

B1: near-full-length human calcium-sensing receptor (CaSR, residues 20-894), Flag-tagged (receptor)
chain: AAAYGPDQRAQKKGDIILGGLFPIHFGVAAKDQDLKSRPESVECIRYNFRGFRWLQAMIFAIEEINSSPALLPNLTLGYRIFDTCNTVSKALEATLSFVAQNKIDSLNLDEFCNCSEHIPSTIAVVGATGSGVSTAVANLLGLFYIPQVSYASSSRLLSNKNQFKSFLRTIPNDEHQATAMADIIEYFRWNWVGTIAADDDYGRPGIEKFREEAEERDICIDFSELISQYSDEEEIQHVVEVIQNSTAKVIVVFSSGPDLEPLIKEIVRRNITGKIWLASEAWASSSLIAMPQYFHVVGGTIGFALKAGQIPGFREFLKKVHPRKSVHNGFAKEFWEETFNCHLQEGAKGPLPVDTFLRGHEESGDRFSNSSTAFRPLCTGDENISSVETPYIDYTHLRISYNVYLAVYSIAHALQDIYTCLPGRGLFTNGSCADIKKVEAWQVLKHLRHLNFTNNMGEQVTFDECGDLVGNYSIINWHLSPEDGSIVFKEVGYYNVYAKKGERLFINEEKILWSGFSREVPFSNCSRDCLAGTRKGIIEGEPTCCFECVECPDGEYSDETDASACNKCPDDFWSNENHTSCIAKEIEFLSWTEPFGIALTLFAVLGIFLTAFVLGVFIKFRNTPIVKATNRELSYLLLFSLLCCFSSSLFFIGEPQDWTCRLRQPAFGISFVLCISCILVKTNRVLLVFEAKIPTSFHRKWWGLNLQFLLVFLCTFMQIVICVIWLYTAPPSSYRNQELEDEIIFITCHEGSLMALGFLIGYTCLLAAICFFFAFKSRKLPENFNEAKFITFSMLIFFIVWISFIPAYASTYGKFVSAVEVIAILAASFGLLACIFFNKIYIILFKPSRNTIEEVRCSTAAHAFKVAARATLRRSNV
As to B1, the binding result is given as “binds”.
